Our source for the binding result, IC50 and EC50 values is patent CN114106159A (ANYUAN MEDICINE SCIENCE AND TECH SHANGHAI LIMITED COMPANY, dated 2022).

The target in experiment [1] is T1, SARS-CoV S1蛋白 (ACRO Biosystems) (SARS-CoV, UniProt P59594 14-667).
T1 construct: domain: S1
The experiment is described as follows: indirect ELISA, SARS-CoV S1 coated at 0.1 μg/mL.

The next experiment addresses T2, 刺突S蛋白-鼠Fc融合蛋白 (S-mFc) (SARS-CoV-2; mouse, UniProt P0DTC2 14-1213).
T2 construct: domain: S蛋白全长区段
Briefly: flow cytometry, blocking of S-mFc binding to 293T-ACE2 cells. A general note: A flow cytometer gives signals particle by particle.

The target of experiment [2] is T3, SARS-CoV-2 S1蛋白 (ACRO Biosystems) (SARS-CoV-2, UniProt P0DTC2 16-685).
T3 construct: domain: S1
Briefly: competition ELISA, coated SARS-CoV-2 S1, HRP-hACE2-Fc as competitor. For orientation: An ELISA detects its analyte on a solid surface through an enzyme-linked reagent.

Usually IC50 stands for the midpoint of a concentration-inhibition curve. By EC50 is commonly meant the midpoint of the concentration-response curve. Read a high EC50 as a need for much substance.

B1: 鼠源抗体S1B-91-3 (murine monoclonal antibody against SARS-CoV-2 S1) (antibody, V domains shown)
VH: QVQLQQSGPQLVRPGASVKISCKASGYSFTDYWLHWVKQRPGQGLEWIGMLDPSDGETRLNQKFKDKATLTVDKSSTTAYMQLSSPTSEDSAVYYCARRHFGYDFDYWGQGTTLTVSS
VL: DIVMTQAAPSVPVTPGESVSISCRSSKSLLHSNGNTYLYWFLQRPGQSPQLLIYRMSNLASGVPDRFSGSGSGTAFTLRISRVEAEDVGVYYCMQHLEYPLTFGGGTKLEVK
notes: also called 鼠源单抗S1B-91-3; 鼠抗S1B-91-3
Regarding B1, the binding result in experiment [1] is “no binding”. The molecule also registered an IC50 with 刺突S蛋白-鼠Fc融合蛋白 (S-mFc) of 0.0137 µg/mL.

B2: 人源化抗体hS1B-91-3 (humanized antibody) (antibody, V domains shown)
VH: EVQLVQSGAEVKKPGSSVKVSCKASGYSFTDYWLHWVRQAPGQGLEWIGMLDPSDGETRLNQKFKDKATLTVDKSTTTAYMQLSSLRSEDTAVYYCARRHFGYDFDYWGQGTTVTVSS
VL: DIVMTQSPSSLPVTPGQPASISCRSSKSLLHSNGNTYLYWFLQKPGKSPQLLIYRMSNLASGVPDRFSGSGSGTDFTLKISRVEAEDVGVYYCMQHLEYPLTFGGGTKVEIKR
notes: also called 人源化单克隆抗体hS1B-91-3
The molecule B2 gave an EC50 in experiment [2] of 0.0738 µg/mL. Besides, the IC50 with 刺突S蛋白-鼠Fc融合蛋白 (S-mFc) is 0.00813 µg/mL.
